Numbering of substitutions follows the chain as printed.
B1: hN1S3-007 (scFv, V domains shown)
VH: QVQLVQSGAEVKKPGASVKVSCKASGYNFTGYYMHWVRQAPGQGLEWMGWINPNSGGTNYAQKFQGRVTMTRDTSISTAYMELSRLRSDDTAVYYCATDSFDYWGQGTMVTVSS
VL: QAVLTQPSSVSGTPGQRVTMSCSGGRSNIGSNAVNWYQQFPGTAPKLLMYNTNQRPSGVPGRFSGSKSGASASLAISGLQSDDEADYYCSSWDDSLNGLEFGGGTKLTVL
notes: phage scFv
B2: N1wc266 (scFv, V domains shown)
VH: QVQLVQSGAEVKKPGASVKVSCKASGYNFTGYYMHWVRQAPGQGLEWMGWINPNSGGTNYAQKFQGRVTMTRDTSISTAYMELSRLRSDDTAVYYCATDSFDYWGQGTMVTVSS
VL: B1 VL with T108E, V109I, L110K
notes: phage scFv
B3: hN1S3-003 (scFv, V domains shown)
VH: EVQLVQSGPEVKKPGTSVKVSCKASGFTFTNSAVQWVRQARGQRLEWIGWIVVGSGNTNYAQKFQERVTITRDMSTSTAYMELSSLKSEDTAVYYCVADTVYWGQGTLVTVSS
VL: not shown
notes: phage scFv
B4: hN1S3-040 (scFv, V domains shown)
VH: B3 VH with N31S, K87R, Q105R, L108T
VL: QSVLTQPPSASGTPGQGVTISCSGSSSNIGRNSVNWYQQLPGTAPKLLIYGDNQRPSGVPDRFSGSKPGTSASLAISGLQSDDEAHYYCAAWDDSLNGWVFGGGTKVTVL
notes: phage scFv
B5: N1wc11 (scFv, V domains shown)
VH: B3 VH with T58I, Q105R, L108M
VL: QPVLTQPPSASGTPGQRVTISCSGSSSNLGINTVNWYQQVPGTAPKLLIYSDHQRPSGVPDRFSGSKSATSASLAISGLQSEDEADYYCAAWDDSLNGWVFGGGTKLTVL
notes: phage scFv
B6: hN1S3-112 (scFv, V domains shown)
VH: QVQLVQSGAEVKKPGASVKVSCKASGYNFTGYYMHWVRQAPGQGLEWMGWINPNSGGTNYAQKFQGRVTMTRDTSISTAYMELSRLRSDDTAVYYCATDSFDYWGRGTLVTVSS
VL: LPVLTQPPSASGTPGQRVTISCSGSSSNIGNNYVYWYQQLPGTAPKLLIYRNNQRPSGVPDRFSASKSGTSASLVISGIRSEDEAEYYCGGWDDSLSGQVVFGGGTKLTVL
notes: phage scFv
B7: hN1S3-088 (scFv, V domains shown)
VH: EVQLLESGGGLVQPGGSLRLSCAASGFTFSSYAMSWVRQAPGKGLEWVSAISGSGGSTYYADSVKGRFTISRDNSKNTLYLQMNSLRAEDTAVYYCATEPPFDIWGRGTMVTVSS
VL: QSVLTQPPSVSGTPGQRVTISCSGSSSNIGNDVVNWYQQLPGTAPKLLIYNDYQRPSGVSDRFSGSKSGTSAYLAISGLQSEDEADYHCAVWDDSLDGWVFGGGTKLTVL
notes: phage scFv
B8: N1wc102 (scFv, V domains shown)
VH: QVQLVQSGAEVKKPGAPVKVSCKASGYNFTGYYMHWVRQAPGQGLEWMGWINPNSGGTNYAQKFQGRVAMTRDTSISTAYMELSRLRSDDTAVYYCATDSFDYWGQGTMVTVSS
VL: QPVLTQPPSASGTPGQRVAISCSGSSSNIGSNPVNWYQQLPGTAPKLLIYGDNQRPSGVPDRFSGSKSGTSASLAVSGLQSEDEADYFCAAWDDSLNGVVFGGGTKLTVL
notes: phage scFv
B9: hN1S3-136 (scFv, V domains shown)
VH: B8 VH with V5Q, Q6E, P17S, A69T, Q106R, M109T
VL: QAVLTQPSSESGTPGQRVTISCSGTTSNIGDNTVTWYQQLPGTAPKLLIYSNTQRPSGVPARFSGSKSGTSASLAISGLQSGDEADYYCAAWDDSRNGYVFGTGTKLTVL
notes: phage scFv
B10: hN1S3-053 (scFv, V domains shown)
VH: B8 VH with Q1E, P17S, A69T, Q106R, M109T
VL: QAVLTQPSSVSGAPGQRVTISCTGSRSNIGAGYDVHWYQQLPGTAPKLLIYGNSNRPSGVPDRFSGSKSGTSASLAITGLQAEDEADYYCQSYDSSLSGSVFGGGTKLTVL
notes: phage scFv
B11: hN1S3-127 (scFv, V domains shown)
VH: B8 VH with Q1E, P17S, A69T, M109L
VL: QSVLTQPPSVSGAPGQRVTISCSGSTSNIGGNPVTWYQQFPGTAPKLLVYRDNQRPSGVADRFSGSRSGTSASLAISGLQSEDEADFYCASWDDSLGGVVFGGGTKLTVL
notes: phage scFv
B12: N1wc403 (scFv, V domains shown)
VH: B8 VH with Q1E, P17S, A69T, Q106R, M109L
VL: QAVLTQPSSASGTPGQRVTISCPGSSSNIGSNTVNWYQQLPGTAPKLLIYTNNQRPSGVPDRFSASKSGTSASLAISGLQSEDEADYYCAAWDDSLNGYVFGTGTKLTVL
notes: phage scFv
B13: N1wc624 (scFv, V domains shown)
VH: B8 VH with V5Q, P17S, A69T, R87G, Q106R, M109L
VL: not shown
notes: phage scFv
B14: N1wc516 (scFv, V domains shown)
VH: B8 VH with Q1E, Q6E, P17S, A69I, R87T, Q106R, M109L
VL: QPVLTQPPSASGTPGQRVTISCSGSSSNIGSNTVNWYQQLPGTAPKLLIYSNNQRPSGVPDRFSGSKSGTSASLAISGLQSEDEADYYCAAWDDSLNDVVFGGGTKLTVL
notes: phage scFv
B15: hN1S3-092 (scFv, V domains shown)
VH: B8 VH with Q1E, P17S, A69T, M109L
VL: QSVLTQPPSASGTPGQRVTISCSGSSSNIGANYVYWYQQLPGTAPKLLIYKNDQRPSGVPDRFSGSKSGTSASLAISGLRSEDEADYYCAAWDDSLSGLVFGGGTKVTVL
notes: phage scFv
B16: hN1S3-036 (scFv, V domains shown)
VH: B8 VH with Q1E, P17S, A69T, Q106R
VL: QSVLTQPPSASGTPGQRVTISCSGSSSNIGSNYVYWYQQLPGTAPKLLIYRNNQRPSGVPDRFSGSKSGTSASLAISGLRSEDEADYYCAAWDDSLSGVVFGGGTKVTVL
notes: phage scFv
B17: hN1S3-038 (scFv, V domains shown)
VH: B8 VH with Q1E, P17S, A69I, R87T, Q106R, M109T, S114R
VL: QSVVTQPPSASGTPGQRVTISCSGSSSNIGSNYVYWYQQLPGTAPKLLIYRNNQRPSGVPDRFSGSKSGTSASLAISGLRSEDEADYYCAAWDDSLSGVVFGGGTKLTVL
notes: phage scFv
B18: hN1S3-095 (scFv, V domains shown)
VH: B8 VH with Q1E, P17S, Q43R, A69T, M109L
VL: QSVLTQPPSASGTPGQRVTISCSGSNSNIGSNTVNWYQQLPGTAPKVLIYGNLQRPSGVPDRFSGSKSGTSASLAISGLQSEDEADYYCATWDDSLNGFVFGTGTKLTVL
notes: phage scFv
B19: hN1S3-055 (scFv, V domains shown)
VH: B8 VH with P17S, L45P, A69T, Q106R
VL: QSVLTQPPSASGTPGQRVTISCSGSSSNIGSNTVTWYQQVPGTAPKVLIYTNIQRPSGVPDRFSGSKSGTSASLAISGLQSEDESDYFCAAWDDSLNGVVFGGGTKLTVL
notes: phage scFv
B20: hN1S3-091 (scFv, V domains shown)
VH: B8 VH with Q1E, P17S, A69T
VL: QSVLTQPPSATGTPGQTVSISCSGGNSNIGSNYVSWYQQLPGTAPKLLIYSNNQRPSGVPDRFSGSKSGTSASLAISGLQSEDEADYYCAAWDDSLNGHIFGTGTKLTVL
notes: phage scFv
B21: N1wc633 (scFv, V domains shown)
VH: B8 VH with V5Q, P17S, A69T, Q106R, M109L
VL: QAVLTQPSSASGTPGQRVTISCSGSSSNIGSYTVNWYQQVPGTAPKLLIYSNNQRPSGVPERFSGSKSGTSASLAISGLQSEDEADYYCAAWDDSLSDVLFGGGTKVTVL
notes: phage scFv
B22: hN1S3-023 (scFv, V domains shown)
VH: B8 VH with Q1E, P17S, A69T
VL: not shown
notes: phage scFv
B23: hN1S3-032 (scFv, V domains shown)
VH: B8 VH with Q1E, P17S, A69T, Q106K, M109L
VL: B10 VL with R26S, Q39R, I50L, S54D, T71A, Q81R, E83D, L108V
notes: phage scFv
B24: hN1S3-124 (scFv, V domains shown)
VH: B8 VH with Q1E, P17S, A69T, Q106R, M109T
VL: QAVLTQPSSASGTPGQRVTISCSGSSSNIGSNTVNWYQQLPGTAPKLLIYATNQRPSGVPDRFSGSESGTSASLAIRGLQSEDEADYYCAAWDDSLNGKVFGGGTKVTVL
notes: phage scFv
B25: hN1S3-182 (scFv, V domains shown)
VH: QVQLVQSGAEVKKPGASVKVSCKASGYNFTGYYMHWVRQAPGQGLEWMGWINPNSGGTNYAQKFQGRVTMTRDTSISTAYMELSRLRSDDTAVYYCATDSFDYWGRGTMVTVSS
VL: B10 VL with R26S, A31S, G32P, H36N, L41F, S54I, S92T, S96T, S98N, S100A
notes: phage scFv
B26: hN1S3-096 (scFv, V domains shown)
VH: B8 VH with Q1E, P17S, A69T, Q106R, M109T
VL: QPVLTQPPSASGTPGQRVTISCSGSSSNIASNSVYWYQQLPGTAPKLLIYRNNQRPSGVPDRFSGSQSGASASLAISGLRSEDEADYYCAAWDDNLYGVVFGGGTKLTVL
notes: phage scFv
B27: N1wc248 (scFv, V domains shown)
VH: B8 VH with Q1E, P17S, A69T, T91S, Q106R, M109L
VL: B26 VL with P2S, A30G, L40F, Q67K, G69D, A70T, A91T, N95S, Y97S
notes: phage scFv
B28: hN1S3-001 (scFv, V domains shown)
VH: B8 VH with Q1E, P17S, A69T
VL: not shown
notes: phage scFv
B29: N1wc572 (scFv, V domains shown)
VH: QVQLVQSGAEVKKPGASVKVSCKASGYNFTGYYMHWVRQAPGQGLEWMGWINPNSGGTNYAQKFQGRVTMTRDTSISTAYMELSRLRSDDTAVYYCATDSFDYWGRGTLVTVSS
VL: LPVLTQPPSASGTPGQRVTISCSGSSSNIGSNPVNWYQQLPGSAPKLLVYSDDQRPSGVPDRFSGSKSGASASLAISGLQSEDESDYYCAAWDDSLNAVVFGGGTKVTVL
notes: phage scFv
B30: N1wc135 (scFv, V domains shown)
VH: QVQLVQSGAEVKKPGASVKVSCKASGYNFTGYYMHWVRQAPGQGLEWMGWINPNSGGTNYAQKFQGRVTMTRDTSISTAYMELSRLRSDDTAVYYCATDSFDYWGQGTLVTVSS
VL: B26 VL with Q1L, T19I, A30G, S33Y, Q67K, A70T, Y88H, N95S, Y97S
notes: phage scFv
B31: hN1S3-181 (scFv, V domains shown)
VH: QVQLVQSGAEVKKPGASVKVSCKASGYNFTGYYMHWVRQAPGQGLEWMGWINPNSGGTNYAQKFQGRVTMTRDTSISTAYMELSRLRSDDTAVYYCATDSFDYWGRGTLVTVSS
VL: SYVLTQPPSASGTPGQRVTISCSGSSPNIGSNTVNWYQQLPGTAPKLLIYTNNQRPSGVPDRFSGSKSATSASLAISGLQFDDEADYFCAAWDDSLLGVVFGGGTKVTVL
notes: phage scFv
B32: N1wc540 (scFv, V domains shown)
VH: B8 VH with Q1E, P17S, A69T
VL: B21 VL with V107L
notes: phage scFv

What follows are binders tested against T1, human full-length Notch1 with C-terminal FLAG tag, stably expressed on 293 FlpIn (TREx) cells (human, UniProt P46531 19-2555) (assay: FACS, phage scFv).
T1 construct: tetracycline/doxycycline-induced expression from pcDNA5/FRT/TO-HN1+FLAG; also called hN1; 293_N1

Binder | binding result
B1 | binds
B2 | binds
B3 | binds
B4 | binds
B5 | binds
B6 | binds
B7 | binds
B8 | binds
B9 | binds
B10 | binds
B11 | binds
B12 | binds
B13 | binds
B14 | binds
B15 | binds
B16 | binds

Binder | binding result
B17 | binds
B18 | binds
B19 | binds
B20 | binds
B21 | binds
B22 | binds
B23 | binds
B24 | binds
B25 | binds
B26 | binds
B27 | binds
B28 | binds
B29 | binds
B30 | binds
B31 | binds
B32 | binds

Each binder was assayed against T2, human full-length Notch3 with C-terminal FLAG tag, stably expressed on 293 FlpIn (TREx) cells (human, UniProt Q9UM47 40-2321) (assay: FACS, phage scFv).
T2 construct: whole, on cells; made by the same strategy as the Notch1 line; also called 293-N3; hN3

Binder | binding result
B1 | binds
B2 | binds
B3 | binds
B4 | binds
B5 | binds
B6 | binds
B7 | binds
B8 | binds
B9 | binds
B10 | binds
B11 | binds
B12 | binds
B13 | binds
B14 | binds
B15 | binds
B16 | binds

Binder | binding result
B17 | binds
B18 | binds
B19 | binds
B20 | binds
B21 | binds
B22 | binds
B23 | binds
B24 | binds
B25 | binds
B26 | binds
B27 | binds
B28 | binds
B29 | binds
B30 | binds
B31 | binds
B32 | binds
